{"source": "patent EP4796128A1", "about": "“ANTI-C-MET ANTIBODY-DRUG CONJUGATE COMPRISING CAMPTOTHECIN DERIVATIVE” (Celltrion, Inc., priority 2023, dated 2025)", "assay_type_in_all_cases": "in vivo, BALB/c nude mice", "key": {"[1]": {"test_system": "NCI-H441 human lung cancer xenograft", "assay": "NCI-H441 human lung cancer xenograft model", "details": "3 mg/kg i.v. QW × 2 weeks", "protocol": "NCI-H441 tumor cells (ATCC, Catalog No. HTB-174) were maintained in vitro in RPMI 1640 medium supplemented with 10% FBS and 1% antibiotic-antimycotic at 37°C and 5% CO2 in air. Tumor cells NCI-H441 were routinely passaged twice a week by treatment with trypsin-EDTA. The cells with exponential growth were harvested and counted for tumor inoculation.\nMice were randomly assigned to groups of 10 each, and tumor cells were inoculated into the mice according to the experimental conditions shown in Table 19 below. Specifically, NCI-H441 tumor cells (5 × 10^6 cells/mouse) were subcutaneously inoculated into the right flank of each mouse together with 0.2 mL of PBS containing Matrigel (1:1). Treatment was started on day 14 after inoculation, when the mean tumor volume reached 180 mm^3, and the treatment start date was set as day 0. This experiment was performed for 35 days.\n(§1) Statistical analysis was performed on the data obtained 35 days after the start of the experiment to determine differences in tumor volume and tumor weight between groups. […] All data were analyzed using SPSS 29.0. p < 0.05 was considered statistically significant."}, "[2]": {"test_system": "LU-01-0439 human lung cancer xenograft", "assay": "LU-01-0439 human lung cancer xenograft (PDX) model", "details": "10 mg/kg i.v. QW × 2 weeks", "from_the_text": "It was aimed to confirm the anticancer effect of the ADC of the present invention from the LU-01-0439 human lung cancer xenograft model of BALB/c nude mice (Zhejiang Vital River Laboratory Animal Technology Co., LTD.).\nThe lung cancer PDX model of LU-01-0439 was generated by transplanting surgically resected clinical samples into immunodeficient mice and was established as passage 0 (P0). Then, the cells were subcultured through serial transplantation, and the passage after P0 was defined as passage 1 (P1). The tumor recovered from the frozen P2 tumor tissue was designated as FP3, and finally, FP4 tumor tissue was prepared for the experiment.\nMice were randomly assigned to groups of eight each, and tumors were implanted into the mice according to the experimental conditions shown in Table 14 below. Specifically, LU-01-0439 FP4 tumor fragments (20-30 mm^3) were subcutaneously implanted into the right flank of each mouse. Treatment was started on day 24 after tumor transplantation, when the mean tumor volume reached 175 mm^3, and the treatment start date was set as Day 0. This experiment was performed for 35 days.\nThe tumor size was measured using the same method as in Experimental Example 3-1 above.\nas §1"}, "[3]": {"test_system": "Hs746T human gastric cancer xenograft", "assay": "Hs746T human gastric cancer xenograft model", "details": "for TGI: Day 13; for T/C: Day 13, tumor volume vs P23 isotype mAb group", "protocol": "Hs746T tumor cells (ATCC, Catalog No. HTB-135) were cultured as a monolayer in DMEM medium supplemented with 10% FBS and 1% antibiotic-antimycotic at 37°C in an atmosphere of 5% CO2 in air. Tumor cells (Hs746T) were routinely passaged three times a week by treating with trypsin-EDTA. The cells with exponential growth were harvested and counted for tumor inoculation.\nMice were randomly assigned to groups of six each, and tumor cells were inoculated into the mice according to the experimental conditions shown in Table 9 below. Specifically, Hs746T tumor cells (2 × 10^6 cells/mouse) were subcutaneously inoculated into the right flank of each mouse together with 0.1 mL of PBS containing Matrigel. The teatment was started on day 15 after inoculation, when the average tumor volume reached 197 mm^3, and the date when the treatment started was set as Day 0. This experiment was performed for 27 days.\nThe experimental endpoints were set when tumor growth stopped or the mice were cured. The size and volume of the tumor were measured twice a week in two and three dimensions using calipers, and these were used to calculate the T/C (tumor volume over control volume) and TGI (tumor growth inhibition) values.\nIn the T/C values (%) above, T and C represent the average volume of the experimental group and the control group on a specific day, respectively, and the T/C value is an index for the antitumor effect.\nThe TGI values were calculated using the following equation, where Ti is a mean tumor volume of the treatment group on a specific date, T0 is a mean tumor volume of the treatment group on the first day of treatment, Vi is a mean tumor volume of the vehicle control group on the same day as Ti, and V0 is a mean tumor volume of the vehicle group on the first day of treatment. TGI (%) = [1−(Ti−T0)/(Vi−V0)] × 100 [formula]\nAll data were analyzed using SPSS 29.0. p < 0.05 was considered statistically significant."}, "[4]": {"details": "Day 35, tumor volume vs P23 isotype mAb group"}, "[5]": {"details": "Day 35, tumor weight vs P23 isotype mAb group"}}, "note": "“And” between values parts separate entries of the source, which are not always exact repeats. Identical values can stand only once."}
{"molecule": "P23-PBX-7016: isotype ADC: anti-influenza A antibody (Navivumab, P23) conjugated with mc-GGFG-PBX-7016; DAR 8 (conjugate, chains of the INN, looked up, mc-GGFG-PBX-7016 payload, DAR 8) VH: QVQLVQSGAEVKKPGASVKVSCKTSGYSFSTYGVSWVRQAPGQGPEWVGWISAYTGITDYAQKFQGRVTLTTDATTATAFLDLRSLRPDDTATYFCARDKVQGRVEVGSGGRHDYWGQGTLVIVSS VL: EVVLTQSPGTLALPPGERATLSCRASHRVGSTYIAWYQQKSGQAPRRLIYGASNRATDIPDRFSGSGSGTDFTLTIRRLEPEDSAVYYCQQFSVSPWTFGQGTRVEIK", "values": [{"measurement": "Tumor Volume", "setting": "[1]; Day 0, mean ± SEM", "result": "180 ± 13", "unit": "mm^3"}, {"measurement": "Tumor Volume", "setting": "[1]; Day 4, mean ± SEM", "result": "198 ± 16", "unit": "mm^3"}, {"measurement": "Tumor Volume", "setting": "[1]; Day 7, mean ± SEM", "result": "171 ± 14", "unit": "mm^3"}, {"measurement": "Tumor Volume", "setting": "[1]; Day 11, mean ± SEM", "result": "140 ± 14", "unit": "mm^3"}, {"measurement": "Tumor Volume", "setting": "[1]; Day 14, mean ± SEM", "result": "131 ± 14", "unit": "mm^3"}, {"measurement": "Tumor Volume", "setting": "[1]; Day 18, mean ± SEM", "result": "134 ± 15", "unit": "mm^3"}, {"measurement": "Tumor Volume", "setting": "[1]; Day 21, mean ± SEM", "result": "138 ± 17", "unit": "mm^3"}, {"measurement": "Tumor Volume", "setting": "[1]; Day 25, mean ± SEM", "result": "155 ± 20", "unit": "mm^3"}, {"measurement": "Tumor Volume", "setting": "[1]; Day 28, mean ± SEM", "result": "190 ± 33", "unit": "mm^3"}, {"measurement": "Tumor Volume", "setting": "[1]; Day 32, mean ± SEM", "result": "235 ± 42", "unit": "mm^3"}, {"measurement": "TGI", "setting": "[1]; Day 35", "result": 91.34, "unit": "%"}, {"measurement": "Tumor Weight on Day 35", "setting": "[1]; Day 35", "result": "0.318 ± 0.059", "unit": "g"}, {"measurement": "Tumor Volume", "setting": "[1]; Day 35, mean ± SEM", "result": "303 ± 54", "unit": "mm^3"}, {"measurement": "T/C", "setting": "[1]; [4]", "result": 19.00, "unit": "%"}, {"measurement": "T/Cweight", "setting": "[1]; [5]", "result": 19.05, "unit": "%"}, {"measurement": "Tumor Volume", "setting": "[2]; Day 0, mean ± SEM", "result": "175 ± 15", "unit": "mm^3"}, {"measurement": "Tumor Volume", "setting": "[2]; Day 3, mean ± SEM", "result": "209 ± 22", "unit": "mm^3"}, {"measurement": "Tumor Volume", "setting": "[2]; Day 7, mean ± SEM", "result": "238 ± 22", "unit": "mm^3"}, {"measurement": "Tumor Volume", "setting": "[2]; Day 10, mean ± SEM", "result": "247 ± 19", "unit": "mm^3"}, {"measurement": "Tumor Volume", "setting": "[2]; Day 14, mean ± SEM", "result": "217 ± 18", "unit": "mm^3"}, {"measurement": "Tumor Volume", "setting": "[2]; Day 17, mean ± SEM", "result": "217 ± 28", "unit": "mm^3"}, {"measurement": "Tumor Volume", "setting": "[2]; Day 21, mean ± SEM", "result": "205 ± 42", "unit": "mm^3"}, {"measurement": "Tumor Volume", "setting": "[2]; Day 24, mean ± SEM", "result": "263 ± 61", "unit": "mm^3"}, {"measurement": "Tumor Volume", "setting": "[2]; Day 28, mean ± SEM", "result": "393 ± 90", "unit": "mm^3"}, {"measurement": "Tumor Volume", "setting": "[2]; Day 31, mean ± SEM", "result": "536 ± 117", "unit": "mm^3"}, {"measurement": "TGI", "setting": "[2]; Day 35", "result": 64.62, "unit": "%"}, {"measurement": "Tumor Weight on Day 35", "setting": "[2]; Day 35", "result": "0.561 ± 0.117", "unit": "g"}, {"measurement": "Tumor Volume", "setting": "[2]; Day 35, mean ± SEM", "result": "630 ± 137", "unit": "mm^3"}, {"measurement": "T/C", "setting": "[2]; [4]", "result": 43.11, "unit": "%"}, {"measurement": "T/C", "setting": "[2]; [5]", "result": 42.93, "unit": "%"}, {"measurement": "Tumor Volume", "setting": "[3]; 0.3 mg/kg i.v. single dose, Day 0, mean ± SEM", "result": "197 ± 24", "unit": "mm^3"}, {"measurement": "Tumor Volume", "setting": "[3]; 0.3 mg/kg i.v. single dose, Day 3, mean ± SEM", "result": "309 ± 37", "unit": "mm^3"}, {"measurement": "Tumor Volume", "setting": "[3]; 0.3 mg/kg i.v. single dose, Day 6, mean ± SEM", "result": "512 ± 87", "unit": "mm^3"}, {"measurement": "Tumor Volume", "setting": "[3]; 0.3 mg/kg i.v. single dose, Day 10, mean ± SEM", "result": "873 ± 170", "unit": "mm^3"}, {"measurement": "TGI", "setting": "[3]; 0.3 mg/kg i.v. single dose", "result": 26.87, "unit": "%"}, {"measurement": "T/C", "setting": "[3]; 0.3 mg/kg i.v. single dose", "result": 76.49, "unit": "%"}, {"measurement": "Tumor Volume", "setting": "[3]; 0.3 mg/kg i.v. single dose, Day 20, mean ± SEM", "result": "2149 ± 475", "unit": "mm^3"}, {"measurement": "Tumor Volume", "setting": "[3]; 0.3 mg/kg i.v. single dose, Day 27, mean ± SEM", "result": "2,175 ± 874 (n = 3) mm^3"}, {"measurement": "Tumor Volume", "setting": "[3]; 1 mg/kg i.v. single dose, Day 0, mean ± SEM", "result": "197 ± 24", "unit": "mm^3"}, {"measurement": "Tumor Volume", "setting": "[3]; 1 mg/kg i.v. single dose, Day 3, mean ± SEM", "result": "298 ± 36", "unit": "mm^3"}, {"measurement": "Tumor Volume", "setting": "[3]; 1 mg/kg i.v. single dose, Day 6, mean ± SEM", "result": "476 ± 80", "unit": "mm^3"}, {"measurement": "Tumor Volume", "setting": "[3]; 1 mg/kg i.v. single dose, Day 10, mean ± SEM", "result": "807 ± 171", "unit": "mm^3"}, {"measurement": "TGI", "setting": "[3]; 1 mg/kg i.v. single dose", "result": 27.98, "unit": "%"}, {"measurement": "T/C", "setting": "[3]; 1 mg/kg i.v. single dose", "result": 75.52, "unit": "%"}, {"measurement": "Tumor Volume", "setting": "[3]; 1 mg/kg i.v. single dose, Day 20, mean ± SEM", "result": "2,089 ± 416 mm^3"}, {"measurement": "Tumor Volume", "setting": "[3]; 3 mg/kg i.v. single dose, Day 0, mean ± SEM", "result": "197 ± 23", "unit": "mm^3"}, {"measurement": "Tumor Volume", "setting": "[3]; 3 mg/kg i.v. single dose, Day 3, mean ± SEM", "result": "281 ± 55", "unit": "mm^3"}, {"measurement": "Tumor Volume", "setting": "[3]; 3 mg/kg i.v. single dose, Day 6, mean ± SEM", "result": "318 ± 72", "unit": "mm^3"}, {"measurement": "Tumor Volume", "setting": "[3]; 3 mg/kg i.v. single dose, Day 10, mean ± SEM", "result": "308 ± 80", "unit": "mm^3"}, {"measurement": "TGI", "setting": "[3]; 3 mg/kg i.v. single dose", "result": 84.88, "unit": "%"}, {"measurement": "Tumor Volume", "setting": "[3]; 3 mg/kg i.v. single dose, Day 13, mean ± SEM", "result": "405 mm^3 and 405 ± 125 mm^3"}, {"measurement": "T/C", "setting": "[3]; 3 mg/kg i.v. single dose", "result": 25.71, "unit": "%"}, {"measurement": "Tumor Volume", "setting": "[3]; 3 mg/kg i.v. single dose, Day 17, mean ± SEM", "result": "669 ± 192", "unit": "mm^3"}, {"measurement": "Tumor Volume", "setting": "[3]; 3 mg/kg i.v. single dose, Day 20, mean ± SEM", "result": "826 ± 223", "unit": "mm^3"}]}
